Assay results taken from publication doi:10.1101/2020.09.12.286559 (bioRxiv, 2020).

What was measured:
[1] = target: T1, Recombinant N-terminal His6-tagged TRF1 (human), P54274; experiment: AFM volume analysis; details: remark: other sources report otherwise
T1 chain: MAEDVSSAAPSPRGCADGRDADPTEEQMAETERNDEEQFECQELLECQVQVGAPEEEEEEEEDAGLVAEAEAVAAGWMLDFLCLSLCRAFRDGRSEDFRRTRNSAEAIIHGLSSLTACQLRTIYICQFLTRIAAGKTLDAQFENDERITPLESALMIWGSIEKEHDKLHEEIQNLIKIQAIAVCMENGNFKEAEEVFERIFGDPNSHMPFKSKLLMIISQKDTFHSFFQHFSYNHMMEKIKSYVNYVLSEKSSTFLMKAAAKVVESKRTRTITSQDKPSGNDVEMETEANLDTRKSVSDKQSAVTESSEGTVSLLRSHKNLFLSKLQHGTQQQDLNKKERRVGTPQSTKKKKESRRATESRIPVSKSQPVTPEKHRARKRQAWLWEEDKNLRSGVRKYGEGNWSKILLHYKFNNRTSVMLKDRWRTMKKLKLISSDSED

[2] = target: T2, N-terminal HA-tagged TIN2L (HA-TIN2L, 1-451 aa) (human, UniProt Q9BSI4-1 1-451); experiment: native gel or EMSA
T2 sequence: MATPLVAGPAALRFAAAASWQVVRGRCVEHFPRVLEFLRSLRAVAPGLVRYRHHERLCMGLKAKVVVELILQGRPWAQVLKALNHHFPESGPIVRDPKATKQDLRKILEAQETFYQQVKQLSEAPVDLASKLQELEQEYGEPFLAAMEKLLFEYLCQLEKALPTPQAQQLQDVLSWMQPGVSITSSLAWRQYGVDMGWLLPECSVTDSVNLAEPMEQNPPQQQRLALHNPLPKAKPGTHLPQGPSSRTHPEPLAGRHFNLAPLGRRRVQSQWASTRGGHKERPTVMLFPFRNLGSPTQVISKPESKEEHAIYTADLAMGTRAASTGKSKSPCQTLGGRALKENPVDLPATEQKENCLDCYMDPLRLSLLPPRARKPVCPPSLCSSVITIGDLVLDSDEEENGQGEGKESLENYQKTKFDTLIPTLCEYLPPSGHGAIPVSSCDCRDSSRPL

B1: Recombinant N-terminal His6-tagged TRF1 (natural protein)
chain: MAEDVSSAAPSPRGCADGRDADPTEEQMAETERNDEEQFECQELLECQVQVGAPEEEEEEEEDAGLVAEAEAVAAGWMLDFLCLSLCRAFRDGRSEDFRRTRNSAEAIIHGLSSLTACQLRTIYICQFLTRIAAGKTLDAQFENDERITPLESALMIWGSIEKEHDKLHEEIQNLIKIQAIAVCMENGNFKEAEEVFERIFGDPNSHMPFKSKLLMIISQKDTFHSFFQHFSYNHMMEKIKSYVNYVLSEKSSTFLMKAAAKVVESKRTRTITSQDKPSGNDVEMETEANLDTRKSVSDKQSAVTESSEGTVSLLRSHKNLFLSKLQHGTQQQDLNKKERRVGTPQSTKKKKESRRATESRIPVSKSQPVTPEKHRARKRQAWLWEEDKNLRSGVRKYGEGNWSKILLHYKFNNRTSVMLKDRWRTMKKLKLISSDSED
stoichiometry N [1]: 2 | binding result [2]: binds
